Measurements from publication PMC7185567.

Experiments:
[1] = molecular target: APE1 (apurinic/apyrimidinic endonuclease 1) (human, UniProt P27695 1-318); assay: EMSA
ISY1 = molecular target: T1, ISY1 (human, UniProt Q9ULR0 1-285); assay: EMSA
T1 sequence: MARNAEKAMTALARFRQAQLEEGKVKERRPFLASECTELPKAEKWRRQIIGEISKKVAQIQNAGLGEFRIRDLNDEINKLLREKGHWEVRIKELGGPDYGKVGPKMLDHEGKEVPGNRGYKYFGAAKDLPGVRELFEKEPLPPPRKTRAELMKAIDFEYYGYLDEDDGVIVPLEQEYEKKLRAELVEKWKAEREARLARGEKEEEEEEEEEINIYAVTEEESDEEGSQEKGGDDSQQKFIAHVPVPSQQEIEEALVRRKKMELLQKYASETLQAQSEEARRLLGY

Chain of APE1 (apurinic/apyrimidinic endonuclease 1) (P27695 whole entry): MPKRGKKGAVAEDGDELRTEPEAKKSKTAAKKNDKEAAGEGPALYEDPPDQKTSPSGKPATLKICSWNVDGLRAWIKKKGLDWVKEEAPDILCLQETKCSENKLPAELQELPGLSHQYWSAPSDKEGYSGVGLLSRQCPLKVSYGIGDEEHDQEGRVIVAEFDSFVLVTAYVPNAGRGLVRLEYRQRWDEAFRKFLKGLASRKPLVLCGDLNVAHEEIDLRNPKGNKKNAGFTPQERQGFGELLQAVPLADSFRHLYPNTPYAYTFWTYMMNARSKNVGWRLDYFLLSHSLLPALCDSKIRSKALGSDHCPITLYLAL

B1: 37-mer control DNA duplex (no AP site) (dsDNA)
DNA 1: CCTGCAGCTGGTGCAAAAGTATTGCGGCGTGTACGGT
DNA 2: ACCGTACACGTTTCCTTACGGGGTCACCAGCTGCAGG
binding result [1]: no binding | binding result (ISY1): no binding
